Assays:
Assay in all cases: SPR
[1] = molecular target: AZD1061 (cilgavimab) (human)
AZD8895-TM (human) = molecular target: AZD8895-TM (human)
AZD1061-TM (human) = molecular target: AZD1061-TM (human)
[2] = molecular target: AZD8895 (tixagevimab) (human)

Substance: human neonatal Fc receptor (from UniProt P55899;P61769)
- Kd [1]: 283 nM
- Kd (AZD8895-TM (human)): 2400 nM
- Kd (AZD1061-TM (human)): 2360 nM
- Kd [2]: 272 nM
